# Data from IntAct's records for PubMed 29039417.
# B1: BBSome complex member BBS1 (Homo sapiens), Q8NFJ9 (parent)
# chain: MAAASSSDSDACGAESNEANSKWLDAHYDPMANIHTFSACLALADLHGDGEYKLVVGDLGPGGQQPRLKVLKGPLVMTESPLPALPAAAATFLMEQHEPRTPALALASGPCVYVYKNLRPYFKFSLPQLPPNPLEQDLWNQAKEDRIDPLTLKEMLESIRETAEEPLSIQSLRFLQLELSEMEAFVNQHKSNSIKRQTVITTMTTLKKNLADEDAVSCLVLGTENKELLVLDPEAFTILAKMSLPSVPVFLEVSGQFDVEFRLAAACRNGNIYILRRDSKHPKYCIELSAQPVGLIRVHKVLVVGSTQDSLHGFTHKGKKLWTVQMPAAILTMNLLEQHSRGLQAVMAGLANGEVRIYRDKALLNVIHTPDAVTSLCFGRYGREDNTLIMTTRGGGLIIKILKRTAVFVEGGSEVGPPPAQAMKLNVPRKTRLYVDQTLREREAGTAMHRAFQTDLYLLRLRAARAYLQALESSLSPLSTTAREPLKLHAVVQGLGPTFKLTLHLQNTSTTRPVLGLLVCFLYNEALYSLPRAFFKVPLLVPGLNYPLETFVESLSNKGISDIIKVLVLREGQSAPLLSAHVNMPGSEGLAAA
# partner: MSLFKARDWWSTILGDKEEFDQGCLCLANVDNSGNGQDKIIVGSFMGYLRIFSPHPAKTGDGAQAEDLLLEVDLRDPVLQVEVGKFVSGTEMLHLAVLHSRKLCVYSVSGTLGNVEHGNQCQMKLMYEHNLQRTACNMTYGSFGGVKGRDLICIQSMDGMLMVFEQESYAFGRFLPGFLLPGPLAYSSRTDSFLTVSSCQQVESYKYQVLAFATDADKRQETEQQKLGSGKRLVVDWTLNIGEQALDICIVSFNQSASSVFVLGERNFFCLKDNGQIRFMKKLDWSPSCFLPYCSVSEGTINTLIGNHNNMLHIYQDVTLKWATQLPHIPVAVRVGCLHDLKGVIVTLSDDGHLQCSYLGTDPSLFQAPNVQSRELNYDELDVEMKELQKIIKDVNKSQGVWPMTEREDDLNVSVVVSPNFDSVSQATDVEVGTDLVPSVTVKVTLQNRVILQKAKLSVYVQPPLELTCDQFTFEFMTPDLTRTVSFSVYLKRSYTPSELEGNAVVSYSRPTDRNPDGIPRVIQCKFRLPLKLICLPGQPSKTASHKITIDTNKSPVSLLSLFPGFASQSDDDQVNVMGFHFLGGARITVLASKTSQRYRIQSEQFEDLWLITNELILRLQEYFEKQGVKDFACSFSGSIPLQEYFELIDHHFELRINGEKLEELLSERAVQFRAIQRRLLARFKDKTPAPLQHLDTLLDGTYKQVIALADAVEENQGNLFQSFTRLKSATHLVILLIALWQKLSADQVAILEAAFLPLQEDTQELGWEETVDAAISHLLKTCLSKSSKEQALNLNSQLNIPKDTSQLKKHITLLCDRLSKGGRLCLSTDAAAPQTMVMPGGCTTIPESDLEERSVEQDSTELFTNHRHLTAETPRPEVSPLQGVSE
# Variants of: B1
# Settings: with pthb1_human BBS9, Q3SYG4
row,Variant,effect of a mutation on the interaction
1,MAAASSSDSDACGAESNEANSKWLDAHYDPMANIHTFSACLALADLHGDGEYKLVVGDLGPGGQQPRLKVLKGPLVMTESPLPALPAAAATFLMEQHEPRTPALALASGPCVYVYKNLRPYFKFSLPQLPPNPLEQDLWNQAKEDRIDPLTLKEMLESIRETAEEPLSIQSLRFLQLELSEMEAFVNQHKSNSIKRQTVITTMTTLKKNLADEDAVSCLVLGTENKELLVLDPEAFTILAKMSLPSVPVFLEVSGQFDVEFRLAAACRNGNIYILRRDSKHPKYCIELSAQPVGLIRVHKVLVVGSTQDSLHGFTHKGKKLWTVQMPAAILTMNLLEQHSRGLQAVMAGLANGEVRIYRDKALLNVIHTPDAVTSLCFGRYGREDNTLIMTTRGGGLIIKILKRTAVFVEGGSEVGPPPAQAMKLNVPRKTRLYVDQTLREREAGTAMHRAFQTDLYLLRLRAARAYLQALESSLSPLSTTAREPLKLHAVVQGLGPTFKLTLHLQNTSTTRPVLGLLVCFLKNEALYSLPRAFFKVPLLVPGLNYPLETFVESLSNKGISDIIKVLVLREGQSAPLLSAHVNMPGSEGLAAA [Y523K],with no effect
2,MAAASSSDSDACGAESNEANSKWLDAHYDPMANIHTFSACLALADLHGDGEYKLVVGDLGPGGQQPRLKVLKGPLVMTESPLPALPAAAATFLMEQHEPRTPALALASGPCVYVYKNLRPYFKFSLPQLPPNPLEQDLWNQAKEDRIDPLTLKEMLESIRETAEEPLSIQSLRFLQLELSEMEAFVNQHKSNSIKRQTVITTMTTLKKNLADEDAVSCLVLGTENKELLVLDPEAFTILAKMSLPSVPVFLEVSGQFDVEFRLAAACRNGNIYILRRDSKHPKYCIELSAQPVGLIRVHKVLVVGSTQDSLHGFTHKGKKLWTVQMPAAILTMNLLEQHSRGLQAVMAGLANGEVRIYRDKALLNVIHTPDAVTSLCFGRYGREDNTLIMTTRGGGLIIKILKRTAVFVEGGSEVGPPPAQAMKLNVPRKTRLYVDQTLREREAGTAMHRAFQTDLYLLRLRAARAYLQALESSLSPLSTTAREPLKLHAVVQGLGPTFKLTLHLQNTSTTRPVLGLLVCFLYAEALYSLPRAFFKVPLLVPGLNYPLETFVESLSNKGISDIIKVLVLREGQSAPLLSAHVNMPGSEGLAAA [N524A],disrupting interaction strength
3,MAAASSSDSDACGAESNEANSKWLDAHYDPMANIHTFSACLALADLHGDGEYKLVVGDLGPGGQQPRLKVLKGPLVMTESPLPALPAAAATFLMEQHEPRTPALALASGPCVYVYKNLRPYFKFSLPQLPPNPLEQDLWNQAKEDRIDPLTLKEMLESIRETAEEPLSIQSLRFLQLELSEMEAFVNQHKSNSIKRQTVITTMTTLKKNLADEDAVSCLVLGTENKELLVLDPEAFTILAKMSLPSVPVFLEVSGQFDVEFRLAAACRNGNIYILRRDSKHPKYCIELSAQPVGLIRVHKVLVVGSTQDSLHGFTHKGKKLWTVQMPAAILTMNLLEQHSRGLQAVMAGLANGEVRIYRDKALLNVIHTPDAVTSLCFGRYGREDNTLIMTTRGGGLIIKILKRTAVFVEGGSEVGPPPAQAMKLNVPRKTRLYVDQTLREREAGTAMHRAFQTDLYLLRLRAARAYLQALESSLSPLSTTAREPLKLHAVVQGLGPTFKLTLHLQNTSTTRPVLGLLVCFLYEEALYSLPRAFFKVPLLVPGLNYPLETFVESLSNKGISDIIKVLVLREGQSAPLLSAHVNMPGSEGLAAA [N524E],with no effect

# The next lines start with the values.
row,effect of a mutation on the interaction,Variant
1,with no effect,MAAASSSDSDACGAESNEANSKWLDAHYDPMANIHTFSACLALADLHGDGEYKLVVGDLGPGGQQPRLKVLKGPLVMTESPLPALPAAAATFLMEQHEPRTPALALASGPCVYVYKNLRPYFKFSLPQLPPNPLEQDLWNQAKEDRIDPLTLKEMLESIRETAEEPLSIQSLRFLQLELSEMEAFVNQHKSNSIKRQTVITTMTTLKKNLADEDAVSCLVLGTENKELLVLDPEAFTILAKMSLPSVPVFLEVSGQFDVEFRLAAACRNGNIYILRRDSKHPKYCIELSAQPVGLIRVHKVLVVGSTQDSLHGFTHKGKKLWTVQMPAAILTMNLLEQHSRGLQAVMAGLANGEVRIYRDKALLNVIHTPDAVTSLCFGRYGREDNTLIMTTRGGGLIIKILKRTAVFVEGGSEVGPPPAQAMKLNVPRKTRLYVDQTLREREAGTAMHRAFQTDLYLLRLRAARAYLQALESSLSPLSTTAREPLKLHAVVQGLGPTFKLTLHLQNTSTTRPVLGLLVCFLYNEAEYSLPRAFFKVPLLVPGLNYPLETFVESLSNKGISDIIKVLVLREGQSAPLLSAHVNMPGSEGLAAA [L527E]
2,with no effect,MAAASSSDSDACGAESNEANSKWLDAHYDPMANIHTFSACLALADLHGDGEYKLVVGDLGPGGQQPRLKVLKGPLVMTESPLPALPAAAATFLMEQHEPRTPALALASGPCVYVYKNLRPYFKFSLPQLPPNPLEQDLWNQAKEDRIDPLTLKEMLESIRETAEEPLSIQSLRFLQLELSEMEAFVNQHKSNSIKRQTVITTMTTLKKNLADEDAVSCLVLGTENKELLVLDPEAFTILAKMSLPSVPVFLEVSGQFDVEFRLAAACRNGNIYILRRDSKHPKYCIELSAQPVGLIRVHKVLVVGSTQDSLHGFTHKGKKLWTVQMPAAILTMNLLEQHSRGLQAVMAGLANGEVRIYRDKALLNVIHTPDAVTSLCFGRYGREDNTLIMTTRGGGLIIKILKRTAVFVEGGSEVGPPPAQAMKLNVPRKTRLYVDQTLREREAGTAMHRAFQTDLYLLRLRAARAYLQALESSLSPLSTTAREPLKLHAVVQGLGPTFKLTLHLQNTSTTRPVLGLLVCFLYKEALYSLPRAFFKVPLLVPGLNYPLETFVESLSNKGISDIIKVLVLREGQSAPLLSAHVNMPGSEGLAAA [N524K]
